The text below walks through data of paper PMC3897551 (Current biology : CB, 2013).

The data set deals with the molecule itself. Nature of the data set: two-step photobleaching of single molecules.

What is called stoichiometry N is the number of molecules, sites or subunits per partner or assembly.

B1: GFP-tagged MCAK containing aa 187-730 (GMΔNT) (domain or fragment, UniProt Q91636 187-730, looked up)
chain: GRNNQGRRKSNIVKEMEKMKNKREEQRAQNYERRMKRAQDYDTSVPNWEFGKMIKEFRATMDCHRISMADPAEEHRICVCVRKRPLNKQELSKKEIDIISVPSKNIVLVHEPKLKVDLTKYLENQAFRFDFSFDETATNEVVYRFTARPLVQSIFEGGKATCFAYGQTGSGKTHTMGGDFSGKSQNVSKGVYAFASRDVFLLLDQPRYKHLDLDVFVTFFEIYNGKVFDLLNKKTKLRVLEDAKQEVQVVGLLEKQVISADDVFKMIEIGSACRTSGQTFANTSSSRSHACLQIILRRGSKLHGKFSLVDLAGNERGVDTASADRITRMEGAEINRSLLALKECIRALGQNKSHTPFRESKLTQILRDSFIGENSRTCMIAMLSPGFNSCEYTLNTLRYADRVKELSPQNAETNDDNLQMEDSGGSHASIEGLQLQDDFLLKDEELSTHNSFQDALNRVGELEDKAVDELRELVQKEPEWTNLLQMTEQPDYDLENFVMQAEYLIQERSKVLIALGDSINSLRLALQVEEQASKQISKKKRSNK
Take B1: the “stoichiometry N” value came to 2.
